We go through three substances from publication PMC11259757.

Where two headings read alike, the source gives them in different places.

Assay [1] concerns the target 3f8 IgG with Fc variant 3a-10, displayed on CHO cells (human). In words: flow cytometry on cells. A general note: In flow cytometry, cells or beads pass a laser one at a time.
Assay [2] deals with 3f8 IgG with Fc variant 3a-5, displayed on CHO cells (human). In words: flow cytometry on cells.
The target in assay [3] is 3f8 IgG with Fc variant 3a-4, displayed on CHO cells (human). In words: flow cytometry on cells.
For assay [4], the target named is 3f8 IgG with Fc variant 3a-9, displayed on CHO cells (human). In words: flow cytometry on cells.
In assay [5] the target is 3f8 IgG with Fc variant 3a-2, displayed on CHO cells (human). In words: flow cytometry on cells.
Assay [6] concerns the target 3f8 IgG with Fc variant LPL, displayed on CHO cells (human). In words: flow cytometry on cells.
For assay [7], the target named is 3f8 IgG with Fc variant 3a-1, displayed on CHO cells (human). In words: flow cytometry on cells.
The target of assay [8] is 3f8 IgG with Fc variant 3a-14, displayed on CHO cells (human). In words: flow cytometry on cells.
The target of assay [9] is 3f8 IgG with Fc variant 3a-8, displayed on CHO cells (human). In words: flow cytometry on cells.
For assay [10], the target named is 3f8 IgG with Fc variant 3a-7, displayed on CHO cells (human). In words: flow cytometry on cells.
The target of assay [11] is 3f8 IgG with Fc variant 3a-3, displayed on CHO cells (human). In words: flow cytometry on cells.
Assay [12] addresses 3f8 IgG with Fc variant V12, displayed on CHO cells (human). In words: flow cytometry on cells.
The target of assay [13] is 3f8 IgG with Fc variant 3a-11, displayed on CHO cells (human). In words: flow cytometry on cells.
Assay [14] has as its target FcγRIIIa-176V extracellular domain, biotinylated (human) (UniProt P08637). In words: BLI.
Assay [15] deals with FcγRIIIa-176F extracellular domain, biotinylated (human) (UniProt P08637). In words: BLI.
In assay [16] the target is FcγRIIb extracellular domain, biotinylated (human) (UniProt P31994). In words: BLI.
Assay [17] has as its target FcγRIIa-131H extracellular domain, biotinylated (human) (UniProt P12318). In words: BLI.
For assay [18], the target named is FcγRIIa-131R extracellular domain, biotinylated (human). In words: BLI.
Sequence of FcγRIIa-131R extracellular domain, biotinylated (human) (P12318 34-217): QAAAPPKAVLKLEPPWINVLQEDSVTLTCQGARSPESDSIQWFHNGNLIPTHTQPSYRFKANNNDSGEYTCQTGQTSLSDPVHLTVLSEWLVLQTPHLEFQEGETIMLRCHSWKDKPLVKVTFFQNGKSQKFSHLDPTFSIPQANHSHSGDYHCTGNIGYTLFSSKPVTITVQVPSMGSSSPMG
For assay [19], the target named is FcγRIIIa-176V extracellular domain, biotinylated (human) (UniProt P08637). In words: BLI. The source holds these as a separate data set.
Assay [20] concerns the target FcγRIIIa-176F extracellular domain, biotinylated (human) (UniProt P08637). In words: BLI. This is another data set of the same source.
Assay [21] has as its target FcγRIIb extracellular domain, biotinylated (human) (UniProt P31994). In words: BLI. This is another data set of the same source.
Assay [22] addresses FcγRIIa-131H extracellular domain, biotinylated (human) (UniProt P12318). In words: BLI. The source holds these as a separate data set. Background: In BLI a coated tip is dipped into the sample, and binding shifts an interference pattern.
Assay [23] deals with FcγRIIa-131R extracellular domain, biotinylated (human). In words: BLI. The source holds these as a separate data set.

Regarding “FcγRIIIa-176F extracellular domain, biotinylated (from UniProt P08637 17-208) (receptor)”, the FcγRIIIa-176F MFI / TNFα MFI was 6.9 MFI ratio in assay [1]; 9.6 MFI ratio in [2]; 8.6 MFI ratio in [3]; 9.2 MFI ratio in assay [4]; 11.1 MFI ratio in [5]; 7.5 MFI ratio in assay [6]. Also, the FcγRIIIa-176F MFI / TNFα MFI in assay [7] came to 8 MFI ratio; in assay [9], 13.2 MFI ratio; in [11] it was 9.3 MFI ratio. In addition, the FcγRIIIa-176F^High cells (%) is 0.8% in assay [2]; 0.93% in assay [3]; 0.61% in assay [5]; 0.25% in assay [6]; 0.1% in assay [7]; 1.15% in [8]. Besides, the FcγRIIIa-176F^High cells (%) in assay [9] stood at 2.23%; in assay [10], 1.15%; in assay [11], 0.81%.
The substance “FcγRIIb extracellular domain, biotinylated (from UniProt P31994 43-217) (receptor)” displayed a FcγRIIb^High cells (%) in [12] of 7.39%. For the same substance, the FcγRIIb MFI / TNFα MFI in assay [13] is 12.9 MFI ratio.
One may read the Kd as a measure of binding affinity in units of concentration. Lower therefore signals a tighter complex. On to trastuzumab IgG with WT Fc (antibody), for which the dissociation constant (Kd) is 390 nM in assay [14]; 770 nM in assay [15]; 580 nM in assay [16]; 390 nM in assay [17]; 520 nM in [18]; 430 nM in [19]. The Kd in assay [20] is 640 nM; in assay [21] it was 570 nM; in assay [22] it was 240 nM; in assay [23] it was 330 nM.
